Test results as given in patent US8460910B2 (Illumina Cambridge Limited, priority 2003, dated 2013).
Each block holds one molecule with its values, some of them ahead of it.

Tests used:
[1] = test system: cordycepin (3′deoxy adenosine triphosphate); settings: Vent polymerase variant; cited from earlier work
3′ modified nucleotide [2] = experiment: Single incorporation method (single cycle of nucleotide incorporation, gel read-out); assay type: biochemical; settings: 45° C., 2 μM nucleotide
Experimental: In order to determine whether the modified polymerases described in the previous examples have the capability to incorporate different nucleotide analogues that bear large modifications at the 3′ position of the sugar, three different uracil nucleotide analogues (3′ O-allyl, 3′ S-methyl, and 3′ O-azido methyl) were tested for their ability to be incorporated by two different […] (9° N ED variant polymerase, and 9° N YAV variant polymerase), compared to a control polymerase (9° N DM). A single cycle of nucleotide incorporation was performed at different time intervals using a ‘single incorporation’ method described below.
1. In a clean reaction tube, mix the following components: • 100 nM ^32P-labelled duplex DNA substrate • 50 μg/ml isolated DNA polymerase • 50 mM TrisHCl, pH 8 • 0.05% Tween20 • water to 47 μL
2. incubate the mixture at 45° C.
3. Add 4 mM MgSO4 and 2 μM 3′ modified nucleotide to the reaction mixture from 2, such that the total reaction volume is 50 μL
4. at various time intervals remove 5 μL aliquots from the reaction tube and mix with 5 μL gel loading buffer (described in Example 2)
5. Heat samples and load on acrylamide gels as described in Example 2.
To determine if the DNA polymerases described in previous examples were capable of incorporating 3′ modified nucleotide derivatives of A, G, C and T bases, and also of incorporating such nucleotide derivatives further modified by different fluorescent reporter groups, a single incorporation reaction (as described in Example 3) was performed with the following 3′ O-azido methyl nucleotide derivatives: […]

3′ modified nucleotide [3] = experiment: Gel-based incorporation assay of Example 2, two cycles of enzymology on bead-bound 32P-labelled DNA template; assay type: biochemical
Experimental: The mutant polymerases were assessed for their ability to incorporate a 3′ blocked nucleotide analogue using a gel-based assay as described in generic form in Example 1. The rates of incorporation of the modified nucleotides were compared to purified forms of related DNA polymerases in both a single round of incorporation and through two rounds of nucleotide incorporation. The DNA template that was used for these experiments was a commercially-synthesised biotinylated oligonucleotide.
The method for two cycles of incorporation involves the binding of the DNA primer-template to streptavidin-coated beads (Dynalbeads). These are prepared as follows: • Resuspend beads in storage pot by pipetting up and down Take 20 μL beads • Wash 3×200 μL TE buffer (10 mM Tris HCl pH 7.5, 1 mM EDTA) Add 50 μL B&W buffer (5 mM Tris HCl, pH 7.5; 1M NaCl, […]) • 25 μL H2O • 25 μL of ^32P-labelled biotin DNA template (final concentration of 100 nM)
The first cycle of enzymatic incorporation is performed on these beads as follows:
Incorporation mix 1 is added to the bead pellet from above.
Reactions are incubated at 45° C. for 15 minutes
The first cycle of enzymology is then deblocked by treatment with tri(carboxyethyl) phosphine (TCEP) as follows:
Add 65 μL TCEP (100 mM) in water and incubate at 65° C. for 15 minutes
After removal of the TE buffer, a second cycle of enzymatic incorporation is then performed by the addition of incorporation mix 2, as follows:
Take 5 μL samples out at ½, 1, 2, 4, 10, 30, 60 mins and add to gel loading buffer with EDTA.
Heat all samples to 95° C. for 10 mins and load 3 μl on a 12% acrylamide gel (Sambrook and Russell, 2001).
Time (mins) to 50% product conversion on second cycle of enzymology at 45° C., 50 mM Tris, pH 8, 4 mM MgSO4, 0.05 (v/v) Tween, 50 μg/ml enzyme, and 2 μM 3′ modified nucleotide. Time to 50% product conversion on first cycle of incorporation shown in parentheses. For other mutants the time to 50% conversion on the first cycle was not measured in these experiments

[4] = test system: 3′ modified nucleotide analogues; experiment: Example 1 library screen (ffT-DIG filter assay) and primer extension assay against 9DM control; assay type: biochemical; settings: variants mutated at regions A and B
Experimental: Mutations were introduced simultaneously at two regions of the 9° N DNA polymerase sequence, residues 408-410, and residues 484-486. A library of polymerase variants was screened for the incorporation of the 3′ modified nucleotide analogues.
The variant polymerases have increased activity towards the modified nucleotides utilised in the experiments. Thus, they appear to incorporate nucleotide analogues which have been modified at the 3′ sugar hydroxyl such that the substituent is larger in size than the naturally occurring 3′ hydroxyl group in primer extension assays faster than previously available polymerases which can act as a control polymerase, such as the 9° N (-exo) Y409V/A485L double mutant (designated 9DM herein).
There are many different methods for screening for nucleotide incorporation that are variations on the method of Sagner et al. (1991). One suitable method is described herein for the incorporation of 3′ modified nucleotide analogues that uses a digoxigenin-3-O-methyl-carbonyl-e-aminocaproic acid (DIG) derivative of the relevant nucleotide analogue (ffT-DIG)
Remove tape and 3 MM paper and place filter back in petri dish. Add incorporation solution pre-warmed to temperature that incorporation will be tested at. […]
This is a generalised method. […] Also, have ready eppendorf containing 1 μl CHASE mix for each reaction. […]

Molecule: Y412V: Vent DNA polymerase with mutation Y412V (Gardner and Jack 1999)
- rate enhancement with cordycepin [1]: 2 fold

B1: VAL (ED polymerase): 9° N DM derivative with L408V; V409A; P410L (motif A VAL) plus A485L; SEQ ID NO: 18 (protein)
chain: MILDTDYITENGKPVIRVFKKENGEFKIEYDRTFEPYFYALLKDDSAIEDVKKVTAKRHGTVVKVKRAEKVQKKFLGRPIEVWKLYFNHPQDVPAIRDRIRAHPAVVDIYEYDIPFAKRYLIDKGLIPMEGDEELTMLAFAIATLYHEGEEFGTGPILMISYADGSEARVITWKKIDLPYVDVVSTEKEMIKRFLRVVREKDPDVLITYNGDNFDFAYLKKRCEELGIKFTLGRDGSEPKIQRMGDRFAVEVKGRIHFDLYPVIRRTINLPTYTLEAVYEAVFGKPKEKVYAEEIAQAWESGEGLERVARYSMEDAKVTYELGREFFPMEAQLSRLIGQSLWDVSRSSTGNLVEWFLLRKAYKRNELAPNKPDERELARRRGGYAGGYVKEPERGLWDNIVYLDFRSVALSIIITHNVSPDTLNREGCKEYDVAPEVGHKFCKDFPGFIPSLLGDLLEERQKIKRKMKATVDPLEKKLLDYRQRLIKILANSFYGYYGYAKARWYCKECAESVTAWGREYIEMVIRELEEKFGFKVLYADTDGLHATIPGADAETVKKKAKEFLKYINPKLPGLLELEYEGFYVRGFFVTKKKYAVIDEEGKITTRGLEIVRRDWSEIAKETQARVLEAILKHGDVEEAVRIVKEVTEKLSKYEVPPEKLVIHEQITRDLRDYKATGPHVAVAKRLAARGVKIRPGTVISYIVLKGSGRIGDRAIPADEFDPTKHRYDAEYYIENQVLPAVERILKAFGYRKEDLRYQKTKQVGLGAWLKVKGKK
modifications: 9oN polymerase variant (exo-) with L408V/Y409A/P410L and A485L mutations
- incorporation of uracil nucleotide analogues with different 3′ modifications (3′ modified nucleotide [2]; 3′ O-allyl, 3′ S-methyl and 3′ O-azido methyl, single cycle, FIG. 3): incorporated efficiently
- substrate conversion (3′ modified nucleotide [2]; each 3′ O-azido methyl nucleotide derivative of Table IV (A, G, C, T; different dyes), within 3 minutes): greater than 90%
- rate of incorporation of the modified nucleotides compared to the original mutant bearing changes at regions A and B (2E) (3′ modified nucleotide [3]): enhanced rate of incorporation
- Time to 50% product conversion on first cycle of incorporation (3′ modified nucleotide [3]; 45° C., 50 mM Tris, pH 8, 4 mM MgSO4, 0.05 (v/v) Tween, 50 μg/ml enzyme, 2 μM 3′ modified nucleotide, first cycle (in parentheses)): min (16 sec)
- Time (mins) to 50% product conversion on second cycle of enzymology (3′ modified nucleotide [3]; 45° C., 50 mM Tris, pH 8, 4 mM MgSO4, 0.05 (v/v) Tween, 50 μg/ml enzyme, 2 μM 3′ modified nucleotide, second cycle): 5.2 min
- incorporation of 3′ modified nucleotide analogues compared to 9° N DM (Y409V/A485L) (3′ modified nucleotide [3]; region A variants, conditions of Example 2): improved incorporation

- incorporation of 3′ modified nucleotide analogues compared to control polymerase (9DM) [4]: improved incorporation
B2: 2E: L408V/Y409A/P410L R484I/A485S/I486N 9° N mutant; SEQ ID NO: 12 (protein)
chain: MILDTDYITENGKPVIRVFKKENGEFKIEYDRTFEPYFYALLKDDSAIEDVKKVTAKRHGTVVKVKRAEKVQKKFLGRPIEVWKLYFNHPQDVPAIRDRIRAHPAVVDIYEYDIPFAKRYLIDKGLIPMEGDEELTMLAFAIATLYHEGEEFGTGPILMISYADGSEARVITWKKIDLPYVDVVSTEKEMIKRFLRVVREKDPDVLITYNGDNFDFAYLKKRCEELGIKFTLGRDGSEPKIQRMGDRFAVEVKGRIHFDLYPVIRRTINLPTYTLEAVYEAVFGKPKEKVYAEEIAQAWESGEGLERVARYSMEDAKVTYELGREFFPMEAQLSRLIGQSLWDVSRSSTGNLVEWFLLRKAYKRNELAPNKPDERELARRRGGYAGGYVKEPERGLWDNIVYLDFRSVALSIIITHNVSPDTLNREGCKEYDVAPEVGHKFCKDFPGFIPSLLGDLLEERQKIKRKMKATVDPLEKKLLDYRQISNKILANSFYGYYGYAKARWYCKECAESVTAWGREYIEMVIRELEEKFGFKVLYADTDGLHATIPGADAETVKKKAKEFLKYINPKLPGLLELEYEGFYVRGFFVTKKKYAVIDEEGKITTRGLEIVRRDWSEIAKETQARVLEAILKHGDVEEAVRIVKEVTEKLSKYEVPPEKLVIHEQITRDLRDYKATGPHVAVAKRLAARGVKIRPGTVISYIVLKGSGRIGDRAIPADEFDPTKHRYDAEYYIENQVLPAVERILKAFGYRKEDLRYQKTKQVGLGAWLKVKGKK
modifications: 9oN polymerase variant (exo-) with L408V/Y409A/P410L R484I/A485S/I486N mutations
